Reference: patent US11666658B2, “Rifamycin analogs and antibody-drug conjugates thereof” (Regeneron Pharmaceuticals, Inc., priority 2018, dated 2023)

How the values were obtained:
[1] = target: T1, human MSR1 extracellular domain (His9-hMSR1) (Homo sapiens, UniProt P21757); test: Surface plasmon resonance (Biacore 4000) binding kinetics, antibody-capture format, 25° C. and 37° C.; settings: analyte His9-hMSR1
T1 construct: human MSR1 extracellular domain expressed with a N-terminal nonahistidine tag; purchased R&D Systems 2708-MS
T1 sequence (P21757 77-451 limits assumed): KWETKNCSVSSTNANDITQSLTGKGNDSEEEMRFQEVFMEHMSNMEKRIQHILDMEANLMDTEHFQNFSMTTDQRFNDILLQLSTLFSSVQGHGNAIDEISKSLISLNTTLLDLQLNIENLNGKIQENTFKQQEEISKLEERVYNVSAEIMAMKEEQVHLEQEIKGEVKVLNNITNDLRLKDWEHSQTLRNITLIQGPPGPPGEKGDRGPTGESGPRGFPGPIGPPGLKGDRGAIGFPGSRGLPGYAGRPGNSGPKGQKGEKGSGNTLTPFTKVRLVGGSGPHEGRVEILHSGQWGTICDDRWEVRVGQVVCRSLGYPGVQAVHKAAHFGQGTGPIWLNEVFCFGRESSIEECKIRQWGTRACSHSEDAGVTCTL
Description: (§1) Binding affinities and kinetic constants of human anti-MSR1 antibodies for different MSR1 reagents were determined by real-time surface plasmon resonance (Biacore 4000). All binding studies were performed in 10 mM HEPES, 150 mM NaCl, 3 mM EDTA, and 0.05% v/v Surfactant Tween-20, pH 7.4 (HBS-ET) running buffer at 25° C. and 37° C.
(§2) The association rate (ka) and dissociation rate (kd) were determined by fitting the real-time binding sensorgrams to a 1:1 binding model with mass transport limitation using Scrubber 2.0 c curve-fitting software. Binding dissociation equilibrium constant (KD) and dissociative half-life (t½) were calculated from the kinetic rates as: […]

[2] = tested on: monkey MSR1 extracellular domain (HMM-mfMSR1); test: as above; settings: analyte HMM-mfMSR1
Sequence of monkey MSR1 extracellular domain (HMM-mfMSR1) (as listed by the source): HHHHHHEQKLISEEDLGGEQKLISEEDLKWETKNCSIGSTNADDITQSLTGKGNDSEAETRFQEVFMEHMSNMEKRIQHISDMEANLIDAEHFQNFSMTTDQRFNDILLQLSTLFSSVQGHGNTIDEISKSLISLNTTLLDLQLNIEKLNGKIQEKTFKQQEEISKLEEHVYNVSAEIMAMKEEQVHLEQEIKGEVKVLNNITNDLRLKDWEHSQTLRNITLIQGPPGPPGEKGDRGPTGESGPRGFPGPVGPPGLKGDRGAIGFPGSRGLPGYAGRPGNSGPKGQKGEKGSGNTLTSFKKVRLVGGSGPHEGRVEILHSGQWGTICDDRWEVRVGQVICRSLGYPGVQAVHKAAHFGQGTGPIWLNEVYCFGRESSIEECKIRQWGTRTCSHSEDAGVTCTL
Description: as §1, §2

[3] = target: T2, mouse MSR1 extracellular domain (His9-mMSR1) (Mus musculus, UniProt P30204); test: OCTET bio-layer interferometry binding kinetics, 25° C.; settings: antibody-capture format
T2 construct: mouse MSR1 extracellular domain expressed with a N-terminal nonahistidine tag; purchased R&D Systems 1797-MS
T2 sequence (P30204 79-458 limits assumed): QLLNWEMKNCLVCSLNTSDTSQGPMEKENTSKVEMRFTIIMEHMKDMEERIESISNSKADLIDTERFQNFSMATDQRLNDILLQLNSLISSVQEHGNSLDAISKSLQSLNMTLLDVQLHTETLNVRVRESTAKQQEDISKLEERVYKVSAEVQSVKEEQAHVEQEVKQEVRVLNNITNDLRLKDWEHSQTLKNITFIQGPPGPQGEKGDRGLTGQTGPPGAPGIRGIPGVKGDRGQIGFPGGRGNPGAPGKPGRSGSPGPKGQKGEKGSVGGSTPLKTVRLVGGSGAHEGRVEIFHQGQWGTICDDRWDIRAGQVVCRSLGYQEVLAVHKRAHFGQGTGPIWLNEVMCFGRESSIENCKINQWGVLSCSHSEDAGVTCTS
Description: Binding affinities and kinetic constants of human anti-MSR1 antibodies for different MSR1 reagents were determined using a real time, label-free bio-layer interferometry assay on an OCTET® HTX biosensor platform (Pall FortéBio Corp., Menlo Park, Calif.). The experiment was performed at 25° C. in 10 mM HEPES, 150 mM NaCl, 3 mM EDTA, 0.05% v/v Surfactant Tween-20, and 1 mg/mL BSA, pH7.4 (HBS-EBT) buffer with the plate shaking at the speed of 1000 rpm. […] The binding of different MSR1 reagents to the captured anti-MSR1 monoclonal antibody was measured for 4 minutes and the dissociation of monoclonal antibody bound MSR1 reagent was monitored for 8-10 minutes in HBS-EBT buffer.
as §2

[4] = 37° C., antibody-capture format
[5] = 37° C., antibody-capture format, * = no dissociation observed, kd manually fixed at 1.00E−05
[6] = Biacore, 25° C., * no dissociation observed, kd fixed at 1.00E−05

B1: H1H21234N-N297Q: "An anti-MSR1 antibody H1H21234N containing a N297Q mutation, which eliminates N-linked glycosylation of the Fc at this site" (antibody, V domains shown)
VH: QVQLQESGPGLVKPSETLSLTCTVTGGSISRNYWSWIRQPPGKGLEWIGYIYYSGSIDYNPSLKSRVTISVDTSKNQFSLKLSSMTAADTAVYYCARDRWNWKYGMDVWGQGTTVIVSS
VL: EIVLTQSPGTLSLSPGERATLSCRASQTVRNNYLAWYHQKPGQAPRLLIYGASSRATGIPDRFSGSGSGTDFTLTISRLEPEDFTVYYCHQYGNSPWTFGQGTKMEIKR
For B1, the ka [1, 4] was 787000 M⁻¹ s⁻¹, the kd [1, 5] was 1.00E−05* s^−1 and the ka ([1]; Biacore, 25° C.) was 497000 M⁻¹ s⁻¹. For the same molecule, the kd [1, 6] was 1.00E−05* s^−1, the ka [2, 4] was 750000 M⁻¹ s⁻¹ and the kd [2, 5] was 1.00E−05* s^−1. For the same molecule, the ka ([2]; Biacore, 25° C.) was 408000 M⁻¹ s⁻¹, the kd [2, 6] was 1.95e-05 s⁻¹ and the kd ([3]; analyte His9-mMSR1, * = no dissociation observed, kd manually fixed at 5.00E−05) was 5.00E−05* s^−1. The ka ([3]; analyte His9-mMSR1, NB = no binding, IC = inconclusive) was 38200 M⁻¹ s⁻¹.
